Assay [1] deals with T1, cynomolgus monkey FcγRIIa2 extracellular domain, His-tagged (cynomolgus monkey).
T1 construct: also called cyno FcgRIIa2
T1 chain: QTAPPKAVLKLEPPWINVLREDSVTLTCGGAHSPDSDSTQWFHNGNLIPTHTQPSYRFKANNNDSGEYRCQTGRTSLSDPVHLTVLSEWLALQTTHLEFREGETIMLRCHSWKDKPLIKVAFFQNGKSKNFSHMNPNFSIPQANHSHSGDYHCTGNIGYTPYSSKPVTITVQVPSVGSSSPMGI
In words: SPR (Biacore), 25C, antibody captured, FcgR as analyte. The method, then:
(§1) The kinetic analysis of interactions between these antibodies and FcγR was carried out using BIACORE® T200 or BIACORE® 4000 (GE Healthcare). HBS-EP+ (GE Healthcare) was used as the running buffer, and the measurement temperature was set to 25° C. […] After the measurement, the antibody captured on the chip was washed off by allowing reaction with 10 mM glycine-HCl, pH1.5 and 25 mM NaOH so that the chip was regenerated and used repeatedly. The sensorgrams obtained as measurement results were analyzed by the 1:1 Langmuir binding model using the BIACORE® Evaluation Software to calculate the binding rate constant ka (L/mol/s) and dissociation rate constant kd (1/s), and the dissociation constant KD (mol/L) was calculated from these values. […] Regarding such interactions, KD values were calculated using the following 1:1 binding model described in BIACORE® T100 Software Handbook BR1006-48 Edition AE.
In general terms: Surface plasmon resonance follows binding to a sensor surface in real time, without labels.

The target in assay [2] is T2, human FcγRIIaH extracellular domain, His-tagged (human, UniProt P12318 34-217).
T2 construct: also called human FcgRIIaH; FcγRIIa type H
T2 sequence: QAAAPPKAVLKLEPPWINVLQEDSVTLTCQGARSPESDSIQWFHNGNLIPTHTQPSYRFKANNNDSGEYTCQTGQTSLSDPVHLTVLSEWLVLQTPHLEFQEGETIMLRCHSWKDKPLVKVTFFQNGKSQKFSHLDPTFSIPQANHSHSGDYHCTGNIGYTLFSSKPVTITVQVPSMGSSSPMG
The assay is described as above. The procedure:
as §1

Assay [3] concerns the target T3, human FcγRIIaR extracellular domain, His-tagged (human, UniProt P12318 34-217).
T3 construct: also called human FcgRIIaR; FcγRIIa type R
T3 chain: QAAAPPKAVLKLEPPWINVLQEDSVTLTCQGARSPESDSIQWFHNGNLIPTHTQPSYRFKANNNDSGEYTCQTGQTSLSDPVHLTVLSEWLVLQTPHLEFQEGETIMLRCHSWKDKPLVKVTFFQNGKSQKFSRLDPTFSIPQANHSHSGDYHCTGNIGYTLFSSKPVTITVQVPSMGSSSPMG
The assay is described as above. The procedure:
as §1

Assay [4] deals with T4, human FcγRIIIaV extracellular domain, His-tagged (human, UniProt P08637 17-208).
T4 construct: also called human FcgRIIIaV
The assay is described as above. The procedure:
as §1
T4 sequence (P08637 17-208 F176V): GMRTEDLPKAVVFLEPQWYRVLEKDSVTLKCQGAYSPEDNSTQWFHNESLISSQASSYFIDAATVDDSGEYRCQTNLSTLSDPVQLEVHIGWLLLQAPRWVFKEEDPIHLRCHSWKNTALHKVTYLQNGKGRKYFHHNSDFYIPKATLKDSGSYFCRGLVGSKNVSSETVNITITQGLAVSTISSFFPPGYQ

Assay [5] has as its target T5, cynomolgus monkey FcγRIIb extracellular domain, His-tagged (cynomolgus monkey).
T5 construct: also called cyno FcgRIIb
T5 chain: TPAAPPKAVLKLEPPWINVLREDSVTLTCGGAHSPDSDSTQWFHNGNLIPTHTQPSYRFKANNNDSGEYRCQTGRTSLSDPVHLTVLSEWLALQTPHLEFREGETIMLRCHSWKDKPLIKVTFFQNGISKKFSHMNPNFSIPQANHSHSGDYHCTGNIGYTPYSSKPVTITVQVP
Described as above. The procedure: as §1

In assay [6] the target is T6, cynomolgus monkey FcγRIIIaS extracellular domain, His-tagged (cynomolgus monkey, UniProt Q8SPW2 21-206 at identity 1.00)).
T6 construct: also called cyno FcgRIIIaS
T6 chain: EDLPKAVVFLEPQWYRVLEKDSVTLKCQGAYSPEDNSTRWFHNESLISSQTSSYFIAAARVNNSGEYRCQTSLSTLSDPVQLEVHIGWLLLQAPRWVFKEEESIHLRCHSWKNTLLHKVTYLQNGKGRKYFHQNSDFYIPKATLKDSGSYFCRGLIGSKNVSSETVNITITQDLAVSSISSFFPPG
In words: SPR (Biacore), 25C, KD of SG1 / KD of variant.

For assay [7], the target named is T1, cynomolgus monkey FcγRIIa2 …. In words: SPR (Biacore), 25C, KD of SG1 / KD of variant.
Assay [8] concerns the target T7, cynomolgus monkey FcγRIIa1 extracellular domain, His-tagged (cynomolgus monkey).
T7 construct: also called cyno FcgRIIa1
T7 chain: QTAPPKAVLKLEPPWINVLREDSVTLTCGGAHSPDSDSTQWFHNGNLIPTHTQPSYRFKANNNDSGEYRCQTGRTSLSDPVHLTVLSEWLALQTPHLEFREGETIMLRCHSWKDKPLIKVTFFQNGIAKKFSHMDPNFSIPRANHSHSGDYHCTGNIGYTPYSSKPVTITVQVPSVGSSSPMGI
Briefly: SPR (Biacore), 25C, KD of SG1 / KD of variant.

Assay [9] has as its target T8, cynomolgus monkey FcγRIIa3 extracellular domain, His-tagged (cynomolgus monkey).
T8 construct: also called cyno FcgRIIa3
T8 chain: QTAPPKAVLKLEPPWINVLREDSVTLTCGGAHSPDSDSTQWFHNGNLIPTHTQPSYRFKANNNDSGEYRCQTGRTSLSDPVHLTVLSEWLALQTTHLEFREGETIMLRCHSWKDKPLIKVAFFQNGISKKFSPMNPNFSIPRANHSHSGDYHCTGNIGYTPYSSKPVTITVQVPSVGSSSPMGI
Briefly: SPR (Biacore), 25C, KD of SG1 / KD of variant.

The target in assay [10] is T9, human FcγRIIb extracellular domain, His-tagged (human, UniProt P31994 43-217).
T9 construct: also called human FcgRIIb
T9 sequence: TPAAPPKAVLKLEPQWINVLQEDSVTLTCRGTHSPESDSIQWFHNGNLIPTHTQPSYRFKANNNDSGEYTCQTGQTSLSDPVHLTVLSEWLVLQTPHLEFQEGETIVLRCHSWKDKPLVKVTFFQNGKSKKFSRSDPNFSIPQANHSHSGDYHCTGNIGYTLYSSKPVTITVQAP
In words: SPR (Biacore), 25C, KD of SG1 / KD of variant.

Assay [11] has as its target T2, human FcγRIIaH extracellular domain, …. In words: SPR (Biacore), 25C, KD of SG1 / KD of variant.
The target in assay [12] is T3, human FcγRIIaR extracellular domain, …. Briefly: SPR (Biacore), 25C, KD of SG1 / KD of variant.
Assay [13] concerns the target T4, human FcγRIIIaV extracellular domain, …. Briefly: SPR (Biacore), 25C, KD of SG1 / KD of variant.
Assay [14] concerns the target T5, cynomolgus monkey FcγRIIb extracellular …. In words: SPR (Biacore), 25C, KD of SG1 / KD of variant.
The target of assay [15] is T10, human FcγRIIaR extracellular domain, His-tagged (human, UniProt P12318 34-217).
T10 construct: also called human FcγRIIa (type R); FcgRIIaR
T10 chain: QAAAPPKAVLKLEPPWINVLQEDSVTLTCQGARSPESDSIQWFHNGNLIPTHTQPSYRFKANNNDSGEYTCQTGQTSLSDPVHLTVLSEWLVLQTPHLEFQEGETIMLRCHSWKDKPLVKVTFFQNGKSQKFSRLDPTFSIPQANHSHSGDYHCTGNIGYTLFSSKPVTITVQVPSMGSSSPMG
In words: SPR (BIACORE), antibody captured, FcγR analyte, 25 C; KD of SG1 divided by KD of variant.

Assay [16] has as its target T11, cynomolgus monkey FcγRIIIaS extracellular domain, His-tagged (cynomolgus monkey, UniProt Q8SPW2 21-206 at identity 1.00)).
T11 construct: also called cyno FcγRIIIaS; cynoFcgRIIIaS
T11 chain: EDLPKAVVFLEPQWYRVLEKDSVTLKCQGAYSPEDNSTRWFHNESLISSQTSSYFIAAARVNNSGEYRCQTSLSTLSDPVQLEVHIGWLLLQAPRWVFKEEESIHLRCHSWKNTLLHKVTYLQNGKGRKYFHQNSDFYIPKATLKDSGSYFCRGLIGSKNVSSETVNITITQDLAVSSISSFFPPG
The assay is described as above.

Assay [17] has as its target T12, human FcγRIIIaV extracellular domain, His-tagged (human, UniProt P08637 17-208).
T12 construct: also called human FcγRIIIa (V158 allotype); FcgRIIIaV; not shown: His-tag added to the C-terminus
Briefly: SPR (BIACORE), antibody captured on chip, FcγR as analyte, 25 C; KD of SG1 divided by KD of the variant. The procedure: as §1
T12 sequence (P08637 17-208 F176V): as the sequence (P08637 17-208 F176V) above

The target in assay [18] is T13, human FcγRIIaH extracellular domain, His-tagged (human, UniProt P12318 34-217).
T13 construct: also called human FcγRIIa (type H); FcgRIIaH; not shown: His-tag added to the C-terminus
T13 sequence: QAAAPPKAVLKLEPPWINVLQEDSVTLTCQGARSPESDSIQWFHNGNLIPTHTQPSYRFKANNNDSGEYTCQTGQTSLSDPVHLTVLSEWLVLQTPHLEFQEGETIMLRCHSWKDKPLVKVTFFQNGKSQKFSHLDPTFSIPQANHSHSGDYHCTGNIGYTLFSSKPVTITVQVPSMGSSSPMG
The assay is described as above. The method, then: as §1

B1: MS1032LO06-MY009 (antibody, human IgG1, kappa)
heavy: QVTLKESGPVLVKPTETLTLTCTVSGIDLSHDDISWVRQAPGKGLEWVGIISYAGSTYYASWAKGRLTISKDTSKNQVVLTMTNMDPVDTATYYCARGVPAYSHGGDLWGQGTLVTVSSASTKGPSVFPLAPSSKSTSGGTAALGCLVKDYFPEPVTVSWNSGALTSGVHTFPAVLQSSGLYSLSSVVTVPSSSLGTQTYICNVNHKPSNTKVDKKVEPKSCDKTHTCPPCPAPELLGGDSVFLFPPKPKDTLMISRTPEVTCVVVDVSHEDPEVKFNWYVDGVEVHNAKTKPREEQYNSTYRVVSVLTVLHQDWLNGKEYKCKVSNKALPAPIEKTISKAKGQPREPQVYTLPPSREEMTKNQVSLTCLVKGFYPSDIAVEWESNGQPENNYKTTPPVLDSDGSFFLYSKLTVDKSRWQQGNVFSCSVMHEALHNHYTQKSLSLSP
light: DIVMTQSPATLSLSPGERATLSCTSSQSVYHANWLSWFQQKPGQPPKLLIYWASTLAYGVPSRFSGSGSGTDFTLTISSLQPEDAATYYCAGGYGGGRYAFGQGTKVEIKRTVAAPSVFIFPPSDEQLKSGTASVVCLLNNFYPREAKVQWKVDNALQSGNSQESVTEQDSKDSTYSLSSTLTLSKADYEKHKVYACEVTHQGLSSPVTKSFNRGEC
notes: SG1 with P238D (EU numbering); also called M103205H795-MY009/M103202L889-SK1
The Kd is the concentration at which binding is half-saturated. B1: the Kd in assay [1] amounted to 2 µM; in [2], 3.5 µM; in assay [3], 2 µM; in assay [4], 550 µM; in assay [5], 4.3 µM. The “KD fold (SG1 = 1)” value in assay [6] is 0.004; in [7] it was 0.2; in [8], 0.2; in [9], 0.5; in assay [10], 3.3; in assay [11], 0.01. Further, the “KD fold (SG1 = 1)” value in assay [12] came to 0.1; in assay [13] it was 0.002; in [14], 0.4.

B2: M103205H795-MY458/M103202L889-SK1 (antibody, human IgG1, kappa, name in EU numbering)
heavy: QVTLKESGPVLVKPTETLTLTCTVSGIDLSHDDISWVRQAPGKGLEWVGIISYAGSTYYASWAKGRLTISKDTSKNQVVLTMTNMDPVDTATYYCARGVPAYSHGGDLWGQGTLVTVSSASTKGPSVFPLAPSSKSTSGGTAALGCLVKDYFPEPVTVSWNSGALTSGVHTFPAVLQSSGLYSLSSVVTVPSSSLGTQTYICNVNHKPSNTKVDKKVEPKSCDKTHTCPPCPAYELLTGPSVFLFPPKPKDTLMISRTPEVTCVVVDVSDEDPEVKFNWYVDGVEVHNAKTKPREEQYNSTYRVVSVLTVLHQDWLNGKEYKCKVSNKALPKPIEKTISKAKGQPREPQVYTLPPSREEMTKNQVSLTCLVKGFYPSDIAVEWESNGQPENNYKTTPPVLDSDGSFFLYSKLTVDKSRWQQGNVFSCSVMHEALHNHYTQKSLSLSP
light: DIVMTQSPATLSLSPGERATLSCTSSQSVYHANWLSWFQQKPGQPPKLLIYWASTLAYGVPSRFSGSGSGTDFTLTISSLQPEDAATYYCAGGYGGGRYAFGQGTKVEIKRTVAAPSVFIFPPSDEQLKSGTASVVCLLNNFYPREAKVQWKVDNALQSGNSQESVTEQDSKDSTYSLSSTLTLSKADYEKHKVYACEVTHQGLSSPVTKSFNRGEC
Turning to B2, the “KD fold (SG1 = 1)” value in assay [15] came to 4.3 fold; in assay [16], 0.2 fold.

B3: M103205H795-MY321/M103202L889-SK1 (antibody, human IgG1, kappa, name in EU numbering)
heavy: QVTLKESGPVLVKPTETLTLTCTVSGIDLSHDDISWVRQAPGKGLEWVGIISYAGSTYYASWAKGRLTISKDTSKNQVVLTMTNMDPVDTATYYCARGVPAYSHGGDLWGQGTLVTVSSASTKGPSVFPLAPSSKSTSGGTAALGCLVKDYFPEPVTVSWNSGALTSGVHTFPAVLQSSGLYSLSSVVTVPSSSLGTQTYICNVNHKPSNTKVDKKVEPKSCDKTHTCPPCPAPELLHGPSVFLFPPKPKDTLMISRTPEVTCVVVDVSDEDPEVKFNWYVDGVEVHNAKTKPREEQYNSTYRVVSVLTVLHQDWLNGKEYKCKVSNKALPKPIEKTISKAKGQPREPQVYTLPPSREEMTKNQVSLTCLVKGFYPSDIAVEWESNGQPENNYKTTPMVLDSDGSFFLYSKLTVDKSRWQQGNVFSCSVMHEALHNHYTQKSLSLSP
light: DIVMTQSPATLSLSPGERATLSCTSSQSVYHANWLSWFQQKPGQPPKLLIYWASTLAYGVPSRFSGSGSGTDFTLTISSLQPEDAATYYCAGGYGGGRYAFGQGTKVEIKRTVAAPSVFIFPPSDEQLKSGTASVVCLLNNFYPREAKVQWKVDNALQSGNSQESVTEQDSKDSTYSLSSTLTLSKADYEKHKVYACEVTHQGLSSPVTKSFNRGEC
notes: Fc variant made by introducing substitutions into M103205H795-SG1; expressed with M103202L889-SK1 as light chain; Substitution positions are EU numbering
As for B3, the “KD fold for humanFcgRs (SG1 = 1)” value in assay [17] amounted to 0.24 fold; in [18], 9.7 fold.
